B1: library; numbered along this chain (parent)
chain: MAAAGGARLLRAASAVLGGPAGRWLHHAGSRAGSSGLLRNRGPGGSAEASRSLSVSARARSSSEDKITVHFINRDGETLTTKGKVGDSLLDVVVENNLDIDGFGACEGTLACSTCHLIFEDHIYEKLDAITDEENDMLDLAYGLTDRSRLGCQICLTKSMDNMTVRVPETVADARQSIDVGKTS

Variants of: B1
Assay: scaled log2 fold change in cell abundance, elesclomol vs control (0 = silent mean, 1 = nonsense mean) (scaled log2 ratio); higher = higher viability under elesclomol (loss of FDX1 cuproptosis function)
Conditions: glucose 10 mM
[1] = with ABC1 FDX1 KO, elesclomol 5 nM, 14 days
[2] = with HEK293T FDX1 KO, elesclomol 40 nM, 11 days
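Also: variant abundance is its share of total variant reads in each endpoint sample, from next-generation sequencing of the integrated ORF PCR-amplified out of genomic DNA.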

Variant	scaled log2 fold change [1]	scaled log2 fold change [2]
I154A	0.161	0.851
S35C	0.0457	0.128
D65W	0.185	0.126
Y142T	-0.197	0.583
Y142C	0.285	-0.427
Y142I	-0.441	
S54M	-0.399	0.147
A47E	0.691	0.694
L127M	0.152	0.302
Q153S	0.243	0.372
Q153P	0.884	0.923
Q153E	0.283	1.2
R166D	0.375	-0.407
P20W	-0.19	-0.657
E120P	0.108	0.193
E120H	-0.0176	-0.794
K126L	-0.515	-0.357
K126A	-0.285	0.163
K126N	-0.104	-0.19
K126Q	-0.973	-0.036
C112T	1.16	0.679

Variant	scaled log2 fold change [1]	scaled log2 fold change [2]
C112K	1.12	1.35
C112P	1.17	0.87
N40M	-0.291	0.304
R147H	-0.0226	-0.215
E107F	-0.754	-1.14
E107C	0.0589	0.444
E107R	-1.12	1.26
K82T	-0.0344	0.0849
K82V	-0.0519	0.989
K82D	-0.58	-0.293
G33I	0.161	0.713
G33Y	0.0588	0.657
A49V	-0.0734	
A49F	0.00966	-0.0173
A49C	0.313	-0.749
A172K	0.212	
D75C	-0.0427	-0.175
D75A	-0.423	0.113
T157I	-0.909	-0.784
I178Q	-0.0255	0.28
I178G	-0.381	

Variant	scaled log2 fold change [1]	scaled log2 fold change [2]
I178K	0.421	1.24
S88W	0.356	-0.287
S88F	0.301	
P43H	0.442	-0.548
P43W	-0.19	0.313
G22A	0.412	
A15G	-0.419	0.437
A15Y	-0.822	
A15W	0.0842	-0.229
A15V	0.02	
I118R	-0.527	-0.461
L117M	0.167	-0.247
L117S	0.36	-1.36
L117N	1.04	0.559
L117P	1.02	1.03
T80H	0.295	
T80D	-0.0431	-0.13
T80W	0.177	0.805
T80Y	0.26	-0.203

Reference: the supplement of paper PMC12855868
